Sequences and labels used below:
B1: TPPP (parent)
chain: LCKDCQVIDGRNVTVTDVDIVFSK
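Further: lentivirally expressed fusions sorted by FACS into six bins by GFP to DsRed ratio, PSI derived from sequencing read proportions per bin multiplied by bin number.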

This data set covers variants of B1. Briefly: protein stability index of a GFP-peptide fusion (GPS, HEK-293T) (PSI 1-6); higher = more stable. The following applies: c terminus: a fixed tail appended.
As to LCKDCQVIDGRNLTVTDVDIVFSK, the protein stability index was found to be 2.48.

In the case of LCKDCQVIDGRNCTVTDVDIVFSK, the protein stability index was found to be 2.16. As for LCKDCQVIDGRNFTVTDVDIVFSK, the protein stability index worked out at 2.08.

For the variant LCKDCQVIDGRNKTVTDVDIVFSK, the protein stability index came out at 2.36. With LCKDCQVIDGRNGTVTDVDIVFSK the figure was 2.79.

Turning to LCKDCQVIDGRNPTVTDVDIVFSK, the protein stability index stood at 3.08. Regarding LCKDCQVIDGRNYTVTDVDIVFSK, the protein stability index came out at 2.37. For the variant LCKDCQVIDGRNITVTDVDIVFSK, the protein stability index was 2.31. As for LCKDCQVIDGRNQTVTDVDIVFSK, the protein stability index came out at 2.49. With LCKDCQVIDGRNVHVTDVDIVFSK the figure was 2.61; with LCKDCQVIDGRNVGVTDVDIVFSK, 3.05. With LCKDCQVIDGRNVCVTDVDIVFSK the figure was 2.41; with LCKDCQVIDGRNVQVTDVDIVFSK, 2.7; with LCKDCQVIDGRNVRVTDVDIVFSK, 2.4. With LCKDCQVIDGRNVKVTDVDIVFSK the figure was 2.48. LCKDCQVIDGRNVPVTDVDIVFSK: the protein stability index came to 2.75.

On to LCKDCQVIDGRNVDVTDVDIVFSK, for which the protein stability index was 2.68. With LCKDCQVIDGRNVSVTDVDIVFSK the figure was 2.83; with LCKDCQVIDGRNVWVTDVDIVFSK, 2.52. Regarding LCKDCQVIDGRNVLVTDVDIVFSK, the protein stability index stood at 1.84. With LCKDCQVIDGRNVNVTDVDIVFSK the figure was 2.73; with LCKDCQVIDGRNVTVTDVDIVMSK, 3.12. With LCKDCQVIDGRNVTVTDVDIVISK the figure was 2.09; with LCKDCQVIDGRNVTVTDVDIVLSK, 2.08. With LCKDCQVIDGRNVTVTDVDIVESK the figure was 4.25; with LCKDCQVIDGRNVTVTDVDIVWSK, 2.3; with LCKDCQVIDGRNVTVTDVDIVRSK, 3.31. Consider LCKDCQVIDGRNVTVTDVDAVFSK, for which the protein stability index is 3.04.

In the case of LCKDCQVIDGRNVTVTDVDHVFSK, the protein stability index amounted to 2.91. Consider LCKDCQVIDGRNVTVTDVDPVFSK, for which the protein stability index stood at 3.14. With LCKDCQVIDGRNVTVTDVDYVFSK the figure was 2.63. With LCKDCQVIDGRNVTVTDVDWVFSK the figure was 1.98; with LCKDCQVIDGRNVTVTDVDCVFSK, 2.68; with LCKDCQVIDGRNVTVTDVDGVFSK, 3.35. With LCKDCQVIDGRNVTVTDVDKVFSK the figure was 3.27; with LCKDCQVIDGRNVTVTDVDMVFSK, 2.5; with LCKDCQVIDGRNVTVTDVDRVFSK, 3.22. Turning to LCKDCQVIDGRNVTVTDVDEVFSK, the protein stability index was determined as 3.92. In the case of LCKDCQVIDGRNVTVTDVDLVFSK, the protein stability index was 3.02. With LCKDCQVIDGRNVTVTDVDIWFSK the figure was 2.07.

Take LCKDCQVIDGRNVTVTDVDIFFSK: the protein stability index amounted to 1.8. For LCKDCQVIDGRNVTVTDVDISFSK, the protein stability index was 3.34. LCKDCQVIDGRNVTVTDVDILFSK: the protein stability index was found to be 2.54. With LCKDCQVIDGRNVTVTDVDIPFSK the figure was 2.66; with LCKDCQVIDGRNVTVTDVDIIFSK, 1.87. With LCKDCQVIDGRNVTVTDVDIKFSK the figure was 3.22. As for LCKDCQVIDGRNVTVTDVDIGFSK, the protein stability index amounted to 3.28. With LCKDCQVIDGRNVTVTDVDITFSK the figure was 3.2. Turning to LCKMCQVIDGRNVTVTDVDIVFSK, the protein stability index was 2.1. With LCKTCQVIDGRNVTVTDVDIVFSK the figure was 1.77. For LCKYCQVIDGRNVTVTDVDIVFSK, the protein stability index was found to be 1.81.

For the variant LCKVCQVIDGRNVTVTDVDIVFSK, the protein stability index came out at 1.82. Turning to LCKECQVIDGRNVTVTDVDIVFSK, the protein stability index was determined as 2.71.

Turning to LCKSCQVIDGRNVTVTDVDIVFSK, the protein stability index turned out to be 1.71. With LCKRCQVIDGRNVTVTDVDIVFSK, the protein stability index stood at 2.73.

On to LCKNCQVIDGRNVTVTDVDIVFSK, for which the protein stability index was 1.69. Turning to LCKHCQVIDGRNVTVTDVDIVFSK, the protein stability index is 1.57.

Turning to LCKDCQVIDGRNVTHTDVDIVFSK, the protein stability index came to 2.92. With LCKDCQVIDGRNVTDTDVDIVFSK the figure was 3.04; with LCKDCQVIDGRNVTYTDVDIVFSK, 2.01. With LCKDCQVIDGRNVTETDVDIVFSK the figure was 3.64; with LCKDCQVIDGRNVTWTDVDIVFSK, 2.22. With LCKDCQVIDGKNVTVTDVDIVFSK the figure was 2.71; with LCKDCQVIDGVNVTVTDVDIVFSK, 2.05. As for LCKDCQVIDGLNVTVTDVDIVFSK, the protein stability index is 1.68.

As to LCKDCQVIDGGNVTVTDVDIVFSK, the protein stability index was determined as 2.56. With LCKDCQVIDGFNVTVTDVDIVFSK the figure was 1.91.

LCKDCQVIDGRNVTVTDVDIVFSG: the protein stability index was 2.55. With LCKDCQVIDGRNVTVTDVDIVFSL the figure was 2.99. As for LCKDCQVIDGRNVTVTDVDIVFSP, the protein stability index came out at 2.62. Turning to LCKDCQVIDGRNVTVTDVDIVFSY, the protein stability index was 2.06. Regarding LCKDCQVIDGRNVTVTDVDIVFSE, the protein stability index is 3.39. With LCKDCQVIDGRNVTVTDVDIVFSH the figure was 2.48; with LCKDCQPIDGRNVTVTDVDIVFSK, 2.96. With LCKDCQCIDGRNVTVTDVDIVFSK the figure was 2.4; with LCKDCQHIDGRNVTVTDVDIVFSK, 2.44; with LCKDCQDIDGRNVTVTDVDIVFSK, 3.64.

For LCKDCQEIDGRNVTVTDVDIVFSK, the protein stability index was 2.94. With LCKDCQWIDGRNVTVTDVDIVFSK the figure was 3.61; with LCKDCQKIDGRNVTVTDVDIVFSK, 2.46. With LCKDCQLIDGRNVTVTDVDIVFSK, the protein stability index is 2.2. Turning to LCKDCQSIDGRNVTVTDVDIVFSK, the protein stability index was determined as 3.05.

As to LCKDCQQIDGRNVTVTDVDIVFSK, the protein stability index was 2.46. With LCKDCQIIDGRNVTVTDVDIVFSK the figure was 2.33. With LCKDCQVIYGRNVTVTDVDIVFSK, the protein stability index is 2.27. With LCKDCQVILGRNVTVTDVDIVFSK the figure was 2.48; with LCKDCQVIGGRNVTVTDVDIVFSK, 2.1. For the variant LCKDCQVINGRNVTVTDVDIVFSK, the protein stability index was 2.

Turning to LCKDCQVIEGRNVTVTDVDIVFSK, the protein stability index turned out to be 2.66. With LCKDCQVIVGRNVTVTDVDIVFSK the figure was 1.21; with CCKDCQVIDGRNVTVTDVDIVFSK, 1.85.

On to VCKDCQVIDGRNVTVTDVDIVFSK, for which the protein stability index was found to be 2.71. With ICKDCQVIDGRNVTVTDVDIVFSK the figure was 2.01; with ECKDCQVIDGRNVTVTDVDIVFSK, 3.41.

The values above are taken from the supplement of paper PMC10567573.
